Data published in US12319941B2, “Thermophilic recombinant type II pullulanase and application thereof” (Jiangnan University, priority 2019, dated 2025).
Entries after “also recorded” stand apart in the source; their conditions may differ. Read-outs that look alike come from different tables or passages of the source.

Assays:
[1] = system: recombinant type II pullulanase Sumo-PulPy; test: Effect of metal ions and chemical reagents on the enzyme activity of Sumo-PulPy; format: biochemical, Pyrococcus yayanosii CH1; settings: for Relative enzyme activity (%): pH 6.6; for effect on the enzyme activity of Sumo-PulPy (in words): reagent added to enzymatic reaction system
[2] = DNS method enzyme activity and kinetic parameters (Lineweaver-Burk) with pullulan as substrate; format: biochemical; settings: for Km / Vmax: pullulan 1.25-40 mg/mL, optimum conditions
Protocol: (§1) The determination of the activity of recombinant type II pullulanase Sumo-PulPy was adopted the 3,5-dinitrosalicylic acid (DNS) method. The specific steps were as follows: reacting 100 μL reaction system (10 μL potassium phosphate buffer with different pH with a final concentration of 100 mM, 50 μL pullulan with a final concentration of 3% and 40 μL enzyme solution) at a certain temperature for 15 min, adding 100 μL DNS reaction solution, boiling in a water bath for 6 min, immediately cooling to room temperature with running water, adding and diluting with distilled water, mixing well, and determining […]. One enzyme activity unit (U) was defined as the amount of enzyme required to release reducing sugar correspond to the reduction capacity of 1 μmol glucose per minute under assay conditions.
Using different concentrations of pullulan (1.25, 2.5, 5, 10, 20, and 40 mg/mL) as the substrate, the enzyme activity was determined under the optimum conditions, the corresponding reaction rate was calculated, and Km value and Vmax were obtained by Linewear Burk method using Michaelis-Menten Equation.

[3] = Optimum pH and pH stability of the enzyme; format: biochemical; settings: for optimum pH: 100 mM potassium phosphate buffer pH 5.8-8.0; for pH stability / pH tolerance: between pH 5.8 and 8.0
Protocol: as §1
Determination of the optimum pH: the purified Sumo-PulPy was subjected to enzymatic reaction in 100 mM potassium phosphate buffer (pH 5.8-8.0) at 95° C.
Determination of the pH stability of the enzyme: the enzyme solution was added into 100 mM potassium phosphate buffer (pH 5.8-8.0) and disposed at 4° C. for 4 h, and then the enzymatic reaction was performed at pH 6.6 and 95° C. to determine the remaining enzyme activity of Sumo-PulPy. […] Except for a 12% loss of enzyme activity after disposal at pH 5.8 for 4 h, the rest has almost no effect on the enzyme activity (FIG. 4).

[4] = format: biochemical; settings: for optimum temperature: potassium phosphate buffer, 75-100° C.
Protocol: as §1
Determination of the optimum temperature of the enzyme: the enzymatic reaction was performed in a potassium phosphate buffer (pH 6.6) at 75-100° C.
Determination of the thermal stability of the enzyme: the enzyme solution with the same amount of enzyme was placed under the conditions of 80° C., 90° C., 95° C. and 100° C., respectively, and disposed for 2 h, 4 h, 6 h, 8 h and 10 h, respectively, and the enzymatic reaction was performed at pH 6.6 and 95° C. to determine the remaining enzyme activity of Sumo-PulPy.

[5] = Analysis of degradation products of pullulan (HPLC); format: biochemical; settings: 1% pullulan, 95° C., 6 h
Protocol: (§2) The sample processing procedure was as follows: an appropriate amount of pure enzyme solution was mixed well with 1% pullulan and 1% Amylose from potato respectively, enzymatically hydrolyzed at 95° C. for 6 h, cooled to room temperature and then centrifuged at 12000 r/min for 20 min. And the supernatant was taken. The enzymatic hydrolysis products of pullulan and Amylose from potato were analyzed using high performance liquid chromatography (HPLC, conditions: Hpersil NH2 amino column (4.6×250 mm), column temperature 40° C., mobile phase (acetonitrile:water=67:33), flow rate 1.0 mL/min, injection volume 20 μL) and MALDI-TOF/TOF matrix-assisted laser […]/ionization tandem time-of-flight mass spectrometer respectively.

[6] = Analysis of degradation products of Amylose from potato (MALDI-TOF/TOF); format: biochemical; settings: 1% Amylose from potato, 95° C., 6 h
Protocol: as §2

[7] = reagent 2 mM, 100% = no reagent, 95° C.
[8] = reagent 1%, 100% = no reagent, 95° C.

## [Ca+2].[Cl-].[Cl-] [CaCl2]
[1]; [7]
  Relative enzyme activity (%): 71.3 ± 3.5%

## [Cl-].[Cl-].[Co+2] [CoCl2]
[1]
  Relative enzyme activity (%): 150.0 ± 4.8%

## [Cl][Cu][Cl] [CuCl2]
[1]; [7]
  Relative enzyme activity (%): 45.9 ± 3.5%

## O[C@@H](CS)[C@@H](O)CS [DTT]
[1]; [8]
  Relative enzyme activity (%): 337.2 ± 4.7%

## O=S(=O)([O-])[O-].[Fe+2] [FeSO4]
[1]; [7]
  Relative enzyme activity (%): 183.1 ± 4.0%

## [Cl-].[K+] [KCl]
[1]; [7]
  Relative enzyme activity (%): 104.1 ± 3.0%
[1]
  effect on the enzyme activity of Sumo-PulPy (in words): weakly promote

## [Cl-].[Cl-].[Mg+2] [MgCl2]
[1]; [7]
  Relative enzyme activity (%): 94.9 ± 3.4%

## [Cl][Mn][Cl] [MnCl2]
[1]; [7]
  Relative enzyme activity (%): 91.2 ± 2.9%

## [Cl-].[Na+] [NaCl]
[1]
  Relative enzyme activity (%): 81.1 ± 4.2%

## O=S(=O)([O-])[O-].[Ni+2] [NiSO4]
[1]; [7]
  Relative enzyme activity (%): 73.3 ± 3.3%

## CCCCCCCC/C=C\CCCCCCCC(=O)OCCOCC(OCCO)C1OCC(OCCO)C1OCCO (centres unmarked) [Tween-80]
[1]; [8]
  Relative enzyme activity (%): 110.8 ± 2.9%
[1]
  effect on the enzyme activity of Sumo-PulPy (in words): weakly promote

## O=S(=O)([O-])[O-].[Zn+2] [ZnSO4]
[1]; [7]
  Relative enzyme activity (%): 0%

## OCCS [β-mercaptoethanol]
[1]; [8]
  Relative enzyme activity (%): 157.4 ± 3.0%

## Triton X-100
[1]; [8]
  Relative enzyme activity (%): 111.1 ± 3.6%
[1]
  effect on the enzyme activity of Sumo-PulPy (in words): weakly promote

B1: Sumo-PulPy: thermophilic recombinant type II pullulanase from Pyrococcus yayanosii CH1 (SEQ ID NO:1) with His and Sumo tags, expressed in E. coli (protein)
chain: MGHHHHHHMSDSEVNQEAKPEVKPEVKPETHINLKVSDGSSEIFFKIKKTTPLRRLMEAFAKRQGKEMDSLRFLYDGIRIQADQTPEDLDMEDNDIIEAHREQIGGQRGSRRVLSLFVVFVVLGSLLALQPEVKAGEPKPLNVIIVWHQHQPYYYDPVQGIYTRPWVRLHAANNYWKMAYYLSKYPDVHATIDLSGSLIAQLADYMNGAKDIYQIITEKIAKGEPLTVEEKWLMLQAPGGFFDHTIPWNGEPVTDKNGNPIRDFWNRYTELKNKMLQAKAKYANLPLEEQKVAVTNEFTEQDYIDLAVLFNLAWIDYNYIMNTPELKALYEKVDEGGYTREDVRTVLKHQMWLLNHTFEEHEKINLLLGNGNVEVTVVPYAHPIGPILNDFGWEEDFDAHVKKAHELYKKYLGAGKVTPKGGWAAESALNDKTLEILAENGWQWVMTDQLVLQKLGIPYTVENYYKPWVAEFNGRKIYLFPRDHALSDRVGFTYSGMNQYQAVEDFINELLRIQKQNYDGSLVYVITLDGENPWEHYPYDGKLFLETLYKRLTELQRQGLIRTLTPSEYIKLYGDKANKLTPQMMERLDLTGDNVEALLKAQSLGELYDMIGVKEEMQWPESSWIDGTLSTWIGEPQENYGWYWLYLARKALMAQKDKMSQENWEKAYEYLLRAEASDWFWWYGSDQSSGQDYTFDRYFKTYLYEIYRLAGLEPPSYLYGNYFPDGEPYTIRALEGLGEGQVKEYSSMSPLAEGVSVYFDGEGVHFVVKGNLEKFEISIYEKGERVGNTFTLLQERPGELKYSLFPFSRDSVGLLITKHVVYRDGKAEIYAATDYENTEKVGEASVKQVDGGVEIVVPFDYIKTPEDFYFAVSTVKDGELEIITTPIELKLPMEVKGVPIVDVVDPEGDDYGPGTYTYPTDPVFVPHHLDLLRFRILEQTDAYVMEFYFKELGGNVWNAPNGFSLQIIEVYLDFREGGNTSAIKMFPDGPGANVNLDPEHPWDLALRIAGWDYGNLIVLPNGTVYQGELQISADPVNNKIIVKVPKKYIQIDEDYGLWGVVLVGSQDGYGPDKWRPVAVEAEQWRLGGADQQAVIDNLAPRVVDLLVPEGFKPTQEEQLSSYDLEKKILATVLMIPLIEGSGGEEPAETPRETAIPAESPTTTEAPTETQSTTTSQGPTETQTGGGICGPVALLGLVMTPLLLRRRR
modifications: His and Sumo tags; Protein translated from synthetic DNA
[2]
  specific enzyme activity: 5.37±0.20 U/mg
  Km: 8.78 ± 0.89 mg/mL
  Vmax: 5.37±0.20 U/mg
[2]; 95° C. and pH 6.6, no metal ions or chemical reagents added
  specific enzyme activity: 5.37±0.20 U/mg
[3]
  optimum pH: 6.6
  pH stability / pH tolerance: better pH tolerance; also recorded: very stable
[3]; 4° C., 4 h, pH 5.8, then assay at pH 6.6 and 95° C.
  loss of enzyme activity after disposal at pH 5.8 for 4 h: 12%
[4]; 10 h
  remaining enzyme activity after heat preservation at 95° C. for 10 h: greater than 50%
[4]
  optimum temperature: 95 °C
[5]
  pullulan hydrolysates: most of the pullulan hydrolysates are maltotriose
[6]
  hydrolysate of Amylose from potato: mainly oligosaccharides such as pentasaccharides, hexasaccharides, heptasaccharides, and octasaccharides

B2: Δ28N+Δ791C: combined truncation mutant of PulPy: first 28 N-terminal amino acids and amino acids after position 790 deleted (SEQ ID NO:3) (protein)
chain: MGHHHHHHMSDSEVNQEAKPEVKPEVKPETHINLKVSDGSSEIFFKIKKTTPLRRLMEAFAKRQGKEMDSLRFLYDGIRIQADQTPEDLDMEDNDIIEAHREQIGGQRGSPKPLNVIIVWHQHQPYYYDPVQGIYTRPWVRLHAANNYWKMAYYLSKYPDVHATIDLSGSLIAQLADYMNGAKDIYQIITEKIAKGEPLTVEEKWLMLQAPGGFFDHTIPWNGEPVTDKNGNPIRDFWNRYTELKNKMLQAKAKYANLPLEEQKVAVTNEFTEQDYIDLAVLFNLAWIDYNYIMNTPELKALYEKVDEGGYTREDVRTVLKHQMWLLNHTFEEHEKINLLLGNGNVEVTVVPYAHPIGPILNDFGWEEDFDAHVKKAHELYKKYLGAGKVTPKGGWAAESALNDKTLEILAENGWQWVMTDQLVLQKLGIPYTVENYYKPWVAEFNGRKIYLFPRDHALSDRVGFTYSGMNQYQAVEDFINELLRIQKQNYDGSLVYVITLDGENPWEHYPYDGKLFLETLYKRLTELQRQGLIRTLTPSEYIKLYGDKANKLTPQMMERLDLTGDNVEALLKAQSLGELYDMIGVKEEMQWPESSWIDGTLSTWIGEPQENYGWYWLYLARKALMAQKDKMSQENWEKAYEYLLRAEASDWFWWYGSDQSSGQDYTFDRYFKTYLYEIYRLAGLEPPSYLYGNYFPDGEPYTIRALEGLGEGQVKEYSSMSPLAEGVSVYFDGEGVHFVVKGNLEKFEISIYEKGERVGNTFTLLQERPGELKYSLFPFSRDSVGLLITKHVVYRDGKAEIYAATDYENTEKVGEASVKQVDGGVEIVVPFDYIKTPEDFYFAVSTVKDGELEIITTPIELKLPMEVKGVP
modifications: Protein translated from synthetic DNA
[2]
  specific enzyme activity: 32.18±0.92 U/mg
  specific enzyme activity relative to Sumo-PulPy: 5.99 times
  Km: 6.63 ± 0.56 mg/mL
  Vmax: 32.18±0.92 U/mg
[3]
  optimum pH: 6.4
  pH stability / pH tolerance: good pH tolerance
[4]
  improvement of optimum temperature compared with Sumo-PulPy: 5 °C
  thermal stability at 100° C. compared with Sumo-PulPy: slightly improves
  optimum temperature: 100 °C
[4]; 2 h
  remaining enzyme activity after heat preservation at 100° C. for 2 h: greater than 60%
